Read-outs that look alike come from different tables or passages of the source. One block for each binder: values may come before it.
Experiments:
4H949-bH = molecular target: T1, 4H949-bH; experiment: two-hybrid library CCNG1;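 further: natural log of median RNA to DNA barcode read ratio; higher means stronger binding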
T1 chain: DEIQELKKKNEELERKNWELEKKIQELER

4H3974-bA = molecular target: T2, 4H3974-bA; experiment: two-hybrid library CCNG1;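 further: natural log of median RNA to DNA barcode read ratio; higher means stronger binding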
T2 chain: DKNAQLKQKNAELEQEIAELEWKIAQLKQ

4H3381-bH = molecular target: T3, 4H3381-bH; experiment: two-hybrid library CCNG1;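 further: natural log of median RNA to DNA barcode read ratio; higher means stronger binding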
T3 chain: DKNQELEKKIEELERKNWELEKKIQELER

4H584-bH = molecular target: T4, 4H584-bH; experiment: two-hybrid library CCNG1;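 further: natural log of median RNA to DNA barcode read ratio; higher means stronger binding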
T4 chain: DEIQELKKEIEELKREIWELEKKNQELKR

4H2760-bH = molecular target: T5, 4H2760-bH; experiment: two-hybrid library CCNG1
T5 chain: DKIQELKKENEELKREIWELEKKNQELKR

4H3041-bH = molecular target: T6, 4H3041-bH; experiment: two-hybrid library CCNG1
T6 chain: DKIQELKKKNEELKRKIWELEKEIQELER

4H3364-bH = molecular target: T7, 4H3364-bH; experiment: two-hybrid library CCNG1
T7 chain: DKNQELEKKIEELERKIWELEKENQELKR

4H264-bH = molecular target: T8, 4H264-bH; experiment: two-hybrid library CCNG1
T8 chain: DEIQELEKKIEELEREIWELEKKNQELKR

4H3297-bH = molecular target: T9, 4H3297-bH; experiment: two-hybrid library CCNG1
T9 chain: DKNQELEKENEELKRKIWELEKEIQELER

4H730-bH = molecular target: T10, 4H730-bH; experiment: two-hybrid library CCNG1
T10 chain: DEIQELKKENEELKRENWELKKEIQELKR

4H2859-bH = molecular target: T11, 4H2859-bH; experiment: two-hybrid library CCNG1
T11 chain: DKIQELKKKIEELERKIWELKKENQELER

4H56-bH = molecular target: T12, 4H56-bH; experiment: two-hybrid library CCNG1
T12 chain: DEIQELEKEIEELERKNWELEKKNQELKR

4H2518-bH = molecular target: T13, 4H2518-bH; experiment: two-hybrid library CCNG1
T13 chain: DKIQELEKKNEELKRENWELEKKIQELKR

4H796-bH = molecular target: T14, 4H796-bH; experiment: two-hybrid library CCNG1
T14 chain: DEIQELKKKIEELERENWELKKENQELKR

4H2931-bH = molecular target: T15, 4H2931-bH; experiment: two-hybrid library CCNG1
T15 chain: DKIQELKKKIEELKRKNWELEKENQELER

4H717-bA = molecular target: T16, 4H717-bA; experiment: two-hybrid library CCNG1
T16 chain: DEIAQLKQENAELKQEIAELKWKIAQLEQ

4H932-bH = molecular target: T17, 4H932-bH; experiment: two-hybrid library CCNG1
T17 chain: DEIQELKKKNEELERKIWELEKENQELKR

4H2585-bH = molecular target: T18, 4H2585-bH; experiment: two-hybrid library CCNG1
T18 chain: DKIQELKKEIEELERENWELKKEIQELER

4H349-bH = molecular target: T19, 4H349-bH; experiment: two-hybrid library CCNG1
T19 chain: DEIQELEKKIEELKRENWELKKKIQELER

4H883-bA = molecular target: T20, 4H883-bA; experiment: two-hybrid library CCNG1
T20 chain: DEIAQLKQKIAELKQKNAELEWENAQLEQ

4H908-bA = molecular target: T21, 4H908-bA; experiment: two-hybrid library CCNG1
T21 chain: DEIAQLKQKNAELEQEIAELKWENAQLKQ

O14-bA = molecular target: T22, O14-bA; experiment: two-hybrid library CCNG1
T22 chain: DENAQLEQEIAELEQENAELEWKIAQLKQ

O5-bP = molecular target: T23, O5-bP; experiment: two-hybrid library CCNG1
T23 chain: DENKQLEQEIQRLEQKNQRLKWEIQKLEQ

4H918-bA = molecular target: T24, 4H918-bA; experiment: two-hybrid library CCNG1
T24 chain: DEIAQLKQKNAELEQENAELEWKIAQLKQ

4H967-bA = molecular target: T25, 4H967-bA; experiment: two-hybrid library CCNG1
T25 chain: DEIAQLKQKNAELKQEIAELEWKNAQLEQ

4H953-bA = molecular target: T26, 4H953-bA; experiment: two-hybrid library CCNG1
T26 chain: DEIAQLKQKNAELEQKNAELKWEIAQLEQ

P7A-bS = molecular target: T27, P7A-bS; experiment: two-hybrid library CCNG1
T27 chain: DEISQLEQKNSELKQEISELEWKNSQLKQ

P6A-bS = molecular target: T28, P6A-bS; experiment: two-hybrid library CCNG1
T28 chain: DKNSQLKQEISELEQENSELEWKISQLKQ

P8A-bS = molecular target: T29, P8A-bS; experiment: two-hybrid library CCNG1
T29 chain: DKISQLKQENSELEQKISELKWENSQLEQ

P5A-bS = molecular target: T30, P5A-bS; experiment: two-hybrid library CCNG1
T30 chain: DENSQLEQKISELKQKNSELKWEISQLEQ

P6bHq = molecular target: T31, P6bHq; experiment: two-hybrid library CCNG1
T31 chain: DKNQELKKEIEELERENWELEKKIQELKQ

P9A-bS = molecular target: T32, P9A-bS; experiment: two-hybrid library CCNG1
T32 chain: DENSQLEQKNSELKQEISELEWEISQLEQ

O7-AA = molecular target: T33, O7-AA; experiment: two-hybrid library CCmax; settings: mean of both orientations
T33 chain: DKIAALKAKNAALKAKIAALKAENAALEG

P10-AA = molecular target: T34, P10-AA; experiment: two-hybrid library CCmax; settings: mean of both orientations
T34 chain: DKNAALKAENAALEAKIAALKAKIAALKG

O3-AA = molecular target: T35, O3-AA; experiment: two-hybrid library CCmax; settings: mean of both orientations
T35 chain: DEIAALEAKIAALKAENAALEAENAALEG

O2-AA = molecular target: T36, O2-AA; experiment: two-hybrid library CCmax
T36 chain: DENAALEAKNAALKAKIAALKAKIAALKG

O5-AA = molecular target: T37, O5-AA; experiment: two-hybrid library CCmax; settings: mean of both orientations
T37 chain: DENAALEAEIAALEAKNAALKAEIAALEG

O6-AA = molecular target: T38, O6-AA; experiment: two-hybrid library CCmax; settings: mean of both orientations
T38 chain: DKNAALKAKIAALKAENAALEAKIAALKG

O4-AA = molecular target: T39, O4-AA; experiment: two-hybrid library CCmax; settings: mean of both orientations
T39 chain: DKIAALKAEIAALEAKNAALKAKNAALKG

O8-AA = molecular target: T40, O8-AA; experiment: two-hybrid library CCmax; settings: mean of both orientations
T40 chain: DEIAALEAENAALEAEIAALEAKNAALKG

P9-AA = molecular target: T41, P9-AA; experiment: two-hybrid library CCmax; settings: mean of both orientations
T41 chain: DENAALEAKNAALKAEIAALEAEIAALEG

O14-AA = molecular target: T42, O14-AA; experiment: two-hybrid library CCmax; settings: mean of both orientations
T42 chain: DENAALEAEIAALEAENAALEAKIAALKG

O13-AA = molecular target: T43, O13-AA; experiment: two-hybrid library CCmax
T43 chain: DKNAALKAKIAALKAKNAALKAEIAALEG

Binder: DKIQELEKKNEELKRENWELEKKIQELKR [4H2518-bH]
- interaction score (4H949-bH): 0.12
- interaction score (4H3974-bA): 0.345
- interaction score (4H3381-bH): 0.567
- interaction score (4H584-bH): 0.647
- interaction score (4H2760-bH): -0.186
- interaction score (4H3041-bH): 0.765
- interaction score (4H3364-bH): 0.178
- interaction score (4H264-bH): -1.77
- interaction score (4H3297-bH): 0.251
- interaction score (4H730-bH): 0.0916
- interaction score (4H2859-bH): -0.0624
- interaction score (4H56-bH): -1.35
- interaction score (4H2518-bH): 1
- interaction score (4H796-bH): 0.388
- interaction score (4H2931-bH): -0.584
- interaction score (4H717-bA): -0.768
- interaction score (4H932-bH): 0.604
- interaction score (4H2585-bH): 0.0674
- interaction score (4H349-bH): -1.75

Binder: DENSQLEQKISELKQKNSELKWEISQLEQ [P5A-bS]
- interaction score (P7A-bS): -1.3
- interaction score (P6A-bS): 0.815
- interaction score (P8A-bS): -1.1
- interaction score (P5A-bS): -0.799
- interaction score (P6bHq): 1.33
- interaction score (P9A-bS): -0.973

Further lines, results first:

- interaction score (4H883-bA): -0.18
- interaction score (4H908-bA): -1.33
- interaction score (O14-bA): 0.814
- interaction score (O5-bP): -1.74
- interaction score (4H918-bA): -1.15
- interaction score (4H967-bA): -1.69
- interaction score (4H953-bA): -1.68
Binder: DEIAQLKQKIAELKQKNAELEWENAQLEQ [4H883-bA]

- interaction score (O7-AA): -1.5
- interaction score (P10-AA): 1.33
- interaction score (O3-AA): -1.26
- interaction score (O2-AA): -1.61
- interaction score (O5-AA): -1.37
- interaction score (O6-AA): -1.77
- interaction score (O4-AA): -1.55
- interaction score (O8-AA): 0.633
- interaction score (P9-AA): 0.934
Binder: DENAALEAKNAALKAKIAALKAKIAALKG [O2-AA]

- interaction score (O7-AA): -1.54
- interaction score (P10-AA): -1.54
- interaction score (O3-AA): -1.86
- interaction score (O2-AA; mean of both orientations): -1.56
- interaction score (O5-AA): -0.257
- interaction score (O6-AA): 1.5
- interaction score (O4-AA): -1.61
- interaction score (O14-AA): 2.19
- interaction score (O8-AA): 1.18
- interaction score (P9-AA): -1.16
- interaction score (O13-AA): -1.69
Binder: DKNAALKAKIAALKAKNAALKAEIAALEG [O13-AA]
